Here are results for two substances from patent US6649396.

In this assay the target is native fiber receptors. The assay is described as follows: cell-based or functional assay.

Turning to “recombinant Ad2 knob (from UniProt P03275 388-582)”, the decrease in expression of luciferase after AdCMVLuc infection of mock-transfected HeLa cells and HeLa cells expressing the irrelevant sFv was over 95%.
Then “recombinant Ad5 knob (from UniProt P11818 386-581)”, with over 95%.
